{
  "source": "the nanobody polyreactivity screen of Harvey et al. (2022)",
  "data": [
    {"assay": "yeast display, Sf9 membrane polyspecificity reagent, FACS + sequencing; frameworks hold sequencing errors", "outline": "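Sorting gates, low and high (top ~1%), were placed on anti-HA fluorescence to track expression and on streptavidin fluorescence to track reagent binding. A clone's polyreactivity label is taken from the gate it came out of. The reagent was 10% biotinylated, detergent-solubilized Sf9 membrane, applied for 1 hour at 4 °C to galactose-induced yeast display cells.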", "values": [
      {"sequence": "QVQLVESGGGLVQAGGSLRLSCAASGSTFGYYAMRWSRQAPGKERELVAAISGSGGSTYYADSVKGRFTISRDNAKNTVYLQMNSLKQEDTAVYYCATSWAGSEYYYWGQGTQVTVSS", "polyreactivity (PSR sort gate)": "high polyreactivity"},
      {"sequence": "QVQLVESGGGLVQAGGSLRLSCAASGSTFGYYTMGWYRQAHGKERELVAAISWGCGSTYYADSVKGRFTISRDNAKNTVYLQMNSLIPEDTAVYYCARTPVTSYKDDFYYWGQGTQVTVSS", "polyreactivity (PSR sort gate)": "low polyreactivity"},
      {"sequence": "QVQLVESGGGLVQAGGSLRLSCAASGSTFGYYTMGWYRQAPGKERELVAAISWSGGSTYYADSVKGRFTISRDNAKNTVYLQMNSLKPEDTAVYYCAALGYTYKYYSYYWGQGTQVTVSS", "polyreactivity (PSR sort gate)": "high polyreactivity"},
      {"sequence": "QVQLVESGGGLVQAGGSLRLSCAASGSTFGYYTMGWYRQAPGKERELVAAITWSGGSTYYADSVKGRFTISRDNAKNTVYLQMNSLKPEDTAVYYCADDDYWTPFGYWGQGTQVTVSS", "polyreactivity (PSR sort gate)": "low polyreactivity"},
      {"sequence": "QVQLVESGGGLVQAGGSLRLSCAASGSTFGYYTMGWYRQAPGKERELVASIDVSGDSTSYADSVKGRFTISRDNAKNTVYVQMNSLKPEDTAVYYCNTGRYPTSPTHNYWGQGTHVTVSS", "polyreactivity (PSR sort gate)": "low polyreactivity"},
      {"sequence": "QVQLVESGGGLVQAGGSLRLSCAASGSTFHGYTIGWSRQAPGKERELVAAISSRGTSTYYADSVKGRFTISRDNAMNTVYLQMNSLKTEDTAVYYCATRGWDKYWGQGTQVTVSS", "polyreactivity (PSR sort gate)": "high polyreactivity"},
      {"sequence": "QVQLVESGGGLVQAGGSLRLSCAASGSTFHLYAMGWNRQAPGKEREFVAAIRGRGGNTYADSVKGRFTISRDNAKNSGYLQMNSLKPEDTAVYYCAARTHYDSDYWGQGTQVTVSS", "polyreactivity (PSR sort gate)": "low polyreactivity"},
      {"sequence": "QVQLVESGGGLVQAGGSLRLSCAASGSTFHLYAMGWYRQAPGKEREFVAAIRGRGGNTYADSVKGRFTISRDNAKNTVYLQMHSLKPEDTAVYYCAAPLLRDLRSPYSYNYWGQGTQVTVSS", "polyreactivity (PSR sort gate)": "low polyreactivity"},
      {"sequence": "QVQLVESGGGLVQAGGSLRLSCAASGSTFHPNGMGWYRQAPGQEREFVAAIRRSGGSTYYADSVKGRFTISRDNAKNTVYLQMNSLKPEDTAVYYCAAKHYYYSPYVRYDPPPGYYWGQGTQVTVSS", "polyreactivity (PSR sort gate)": "high polyreactivity"},
      {"sequence": "QVQLVESGGGLVQAGGSLRLSCAASGSTFHRNSMGWYRQAPGKERELVASISIGGSTNYADSVKGRFTISRDNAKNTVYLQMNSLKPEDTAVYYCATEPNPRRPRVDYDYWGQGTQVTVSS", "polyreactivity (PSR sort gate)": "low polyreactivity"},
      {"sequence": "QVQLVESGGGLVQAGGSLRLSCAASGSTFHRYTMGWYRQAPGKEWELVAAISWSGGSTYYADSVKGRFTISRDNAKNTVYLQMNSLKPEDTAVYYCAAVKPAEALDYWGQGTQVTVSS", "polyreactivity (PSR sort gate)": "high polyreactivity"},
      {"sequence": "QVQLVESGGGLVQAGGSLRLSCAASGSTFHSYAIGWYRQAPGKEREFVAAITIRGGSTYYADSVKGRITISRDNAKNTVYLQMNSLKPEDNAVYYCAALVWGSYARWRYYCGQGTQVTVSS", "polyreactivity (PSR sort gate)": "high polyreactivity"},
      {"sequence": "QVQLVESGGGLVQAGGSLRLSCAASGSTFHVNAMGWYRQAPGKEREFVAAISWRTGSTYYADSVKGRFTISRDNAKNTVYLQRHSLKPEDTAVYYCAAKRSYSNYDYWGQGTQVTVSS", "polyreactivity (PSR sort gate)": "high polyreactivity"},
      {"sequence": "QVQLVESGGGLVQAGGSLRLSCAASGSTFHYYAMGWYRQAPGKERELVAAITRGGNTYYADSVKGRFTISRGNAKNTVYLQMNSLKPEDTAVYYCAKDNLFEAYRYDYWGQGTQVTVSS", "polyreactivity (PSR sort gate)": "low polyreactivity"},
      {"sequence": "QVQLVESGGGLVQAGGSLRLSCAASGSTFICKAMGWYRQAPGKERELVAAIDYRGGNTYYADSVKGRFTISRDYAKNSVYLHMNSLKPEHTAVYYCAARVVGYEYFYDYYYWGQGTQVTLSS", "polyreactivity (PSR sort gate)": "low polyreactivity"},
      {"sequence": "QVQLVESGGGLVQAGGSLRLSCAASGSTFIFNAMGWYRQAPGKERELVAGISSGSTYYADSVKGRFTISRDNAKNTVYLQMNSLIPEDTAVYSCATKLRRWRFYAAYDYWGQGTQVTVSS", "polyreactivity (PSR sort gate)": "high polyreactivity"},
      {"sequence": "QVQLVESGGGLVQAGGSLRLSCAASGSTFIFNAMGWYRQAPGKEWELVAGISSGSTYYADSVKGRFTISRDNAKNTVYLQMNSLKPEDTAVYYCATKLRRWRFYAAYDYWGQGTQVTVSS", "polyreactivity (PSR sort gate)": "high polyreactivity"},
      {"sequence": "QVQLVESGGGLVQAGGSLRLSCAASGSTFIFYSMGCYRQAPGKERELVASITSSSGPTYYADSVKGRFTISRDNAKNTVYLQMNSLKPEDTAVYYCAKRPIRYYHLLRGNYWGQGTQVTVSS", "polyreactivity (PSR sort gate)": "low polyreactivity"},
      {"sequence": "QVQLVESGGGLVQAGGSLRLSCAASGSTFIGNAMGWYRQAPGKERELVAAITSSGGSTYYADSVKGRFTISRDNAKNTVYLQMNSLKPEDTAVYYCAAKSRRTRRSYYWGQGTQVTVSS", "polyreactivity (PSR sort gate)": "high polyreactivity"},
      {"sequence": "QVQLVESGGGLVQAGGSLRLSCAASGSTFIGYAMGWYRKAPGKERELVAAITGGGRTNYADSVKGRFTISRDNAKNTVYLQMNSLKPEDTAVYYCAARGVTRGYAKPYYSRGDYWGQGTQVTVSS", "polyreactivity (PSR sort gate)": "low polyreactivity"},
      {"sequence": "QVQLVESGGGLVQAGGSLRLSCAASGSTFIGYAMGWYRQAPGKERELVASISWGGGSTYYADSVKGRFTISRDNAKNTVYLQMNSLKPEDTAVYYCATDGRTYIDFYWGQGTQVTVSS", "polyreactivity (PSR sort gate)": "low polyreactivity"},
      {"sequence": "QVQLVESGGGLVQAGGSLRLSCAASGSTFIGYAMGWYRQAPGKEWELVAAISWSGGRTYYADSVKGRFTISRDNEKNTVYLQMNSLKPEDTAVYYCAASYYGCSARYDTLGIYEYWGLGTQVTVSS", "polyreactivity (PSR sort gate)": "high polyreactivity"},
      {"sequence": "QVQLVESGGGLVQAGGSLRLSCAASGSTFIHNAMGWYRQAPGKERELVAAITSGGSTYYADSVKGRFTISRDNAKNTVYLQMTSLKPEDTAVYYCNAGRGTRFVYIDGMDYWGQGTQVTVSS", "polyreactivity (PSR sort gate)": "high polyreactivity"},
      {"sequence": "QVQLVESGGGLVQAGGSLRLSCAASGSTFILNAMGWYRQAPGKERELVATISSSDTSTYYADSVKGRFTISRDNANNTVYLQMNSLKPEDTAVYYCNADYYTTSYLQRVYHYGVEYDYWGQGTQVTVSS", "polyreactivity (PSR sort gate)": "low polyreactivity"},
      {"sequence": "QVQLVESGGGLVQAGGSLRLSCAASGSTFILYAMGWYRQAPGKERELVAAISSDGSTYYADSVKGRFTISRDNAKNTVYLQMNSLKPEDTAVYYCAADSDTFYYTGYDYDYWGQGTQVTVSS", "polyreactivity (PSR sort gate)": "low polyreactivity"},
      {"sequence": "QVQLVESGGGLVQAGGSLRLSCAASGSTFIPYAMGWYRQAPGKERELVAAIRGGDGSTYYADSVKGRFTISRDNAKNTVYLQMNSLKPEDTAVYYCAADTVITAYFYRFWRYNYWGQGTQVTVSS", "polyreactivity (PSR sort gate)": "low polyreactivity"},
      {"sequence": "QVQLVESGGGLVQAGGSLRLSCAASGSTFIRYAMGWYRQAPGKERELVAAISSGGGNTYYADSVKGRFTISRDNAKNTVYLQMDSLKPEDTAVYYCAARYLAYGPTGYLYGYNYWGQGTQVTVSS", "polyreactivity (PSR sort gate)": "high polyreactivity"},
      {"sequence": "QVQLVESGGGLVQAGGSLRLSCAASGSTFISNDMGWYRQAPGKEREFVAAITASGGSTYYADSVKGRFTISRDYAKNTVYLQMNSLKPEDTAVYYCARVYTFLDVYFRYGYWGQGTQVTVSS", "polyreactivity (PSR sort gate)": "low polyreactivity"},
      {"sequence": "QVQLVESGGGLVQAGGSLRLSCAASGSTFISYAMGWYRQAPGKERELVAAISYRGGSTRYADSVKGRFTISRDNAKNTVYLQMNSLKPEDTAVYYCAAYTRKSHIREYDYWGQGTQVTVSS", "polyreactivity (PSR sort gate)": "high polyreactivity"},
      {"sequence": "QVQLVESGGGLVQAGGSLRLSCAASGSTFITYVMGWYRQAPGKERELVAAISRSGGTTYYADSVKGRFTISRDNAKNTVYLQMNCLKPEDTAVYYCAARIGGQVQKTARGSWGQGTQVTVSS", "polyreactivity (PSR sort gate)": "high polyreactivity"},
      {"sequence": "QVQLVESGGGLVQAGGSLRLSCAASGSTFIVNALGGYRQAPGHEREFVAAIRWSGGSTYYADSVKGRFTISRDNAKNTVYFQMNSLKPDDTAVYYCNARSYQSARFRGGYWGQGTQVTVSS", "polyreactivity (PSR sort gate)": "high polyreactivity"},
      {"sequence": "QVQLVESGGGLVQAGGSLRLSCAASGSTFIVNAMGWYRQAPGKERELVAAITGGGGSTYYADSVKGRFTISRDNAKNTVYLQMNSLKPEDTAVDYCAARIQYAFGADYYWGQGTQVTVSS", "polyreactivity (PSR sort gate)": "low polyreactivity"},
      {"sequence": "QVQLVESGGGLVQAGGSLRLSCAASGSTFIVYAMGWYRQAPGKERELVAAIRGRGGSTYYADSVKGRFTISRDNAKNTVYLQMNSLKPEDTAVYYCAARGISPQEMYYWGQGTQVTVSS", "polyreactivity (PSR sort gate)": "high polyreactivity"},
      {"sequence": "QVQLVESGGGLVQAGGSLRLSCAASGSTFIWYDMGWYRQAPGKERELVATIDGNDGSTYYADSVKGRFTISRDNAKNTVYLQMNSLKPEDTAVYYCAKRSTGRLQSYNYWGQGTQVTVSS", "polyreactivity (PSR sort gate)": "low polyreactivity"},
      {"sequence": "QVQLVESGGGLVQAGGSLRLSCAASGSTFIYNTMGSYRQAPGKERELVAAISGSGGRTYYADSVKGRFTISRDNAKNTVYLQMNSLKPEDTAVYYCAARYYTKLYWGQGTQVTVSS", "polyreactivity (PSR sort gate)": "high polyreactivity"},
      {"sequence": "QVQLVESGGGLVQAGGSLRLSCAASGSTFIYYAMGWYRQAPGKERELVAGISIRGGSTYADSVKGRFTISRDNAKNTVYLQKNSLKPEDTAVYFCNAYKRIKANGYAIRYYYWGQGTQVTVSS", "polyreactivity (PSR sort gate)": "high polyreactivity"},
      {"sequence": "QVQLVESGGGLVQAGGSLRLSCAASGSTFKAYAMGWYRQAPGKERELVAAITKSGGRTYYADSVKGRFTLSRDNAKNTVYLQMNSLKPEDTAVYYCNAAAYVWKSKQRLYVITYDYWGQGTQVTVSS", "polyreactivity (PSR sort gate)": "high polyreactivity"},
      {"sequence": "QVQLVESGGGLVQAGGSLRLSCAASGSTFKAYAMGWYRQAPGKERELVAAITYNGGSTYYADSVKGRFTISRDNEKNTVYLQMNSLKPEDTAVYYCAKRETGRRDPRRSTQYRYEYWGQGTQVTVSS", "polyreactivity (PSR sort gate)": "low polyreactivity"},
      {"sequence": "QVQLVESGGGLVQAGGSLRLSCAASGSTFKAYVMGWYRQEPAKERELVAVISRSGGTTYYADSVKGRFTISRDNAKNTVYLQMNSLKPEDTAVYYCAAQWRYQYPESLESYYWGQGTQGTVSS", "polyreactivity (PSR sort gate)": "high polyreactivity"},
      {"sequence": "QVQLVESGGGLVQAGGSLRLSCAASGSTFKEYTMGWYRQAPAKERELVAASSKSGDSTYYADSVKGRFTISRDNAKNTVYLQMNSLKPEDTAVYYCNKPTWYTIYDYWGQGTQVTVSS", "polyreactivity (PSR sort gate)": "low polyreactivity"},
      {"sequence": "QVQLVESGGGLVQAGGSLRLSCAASGSTFKFNAMGWYRQAPGKEREFVAAITSSGDSTYYADSVKGRFTISRDNAKNTVYLQMNCLKPEDTAVYYCAAEFESSFALGFYYWGQGTEVTVSS", "polyreactivity (PSR sort gate)": "high polyreactivity"},
      {"sequence": "QVQLVESGGGLVQAGGSLRLSCAASGSTFKFYTMGWYRQAPGKERELVATIDWSGGSTYYADSVKGRFTISRDNAKNTVYLQMNSLKPEDTAVYYCAAYSRSRNTRLGKYYYWGQGTQVTVSS", "polyreactivity (PSR sort gate)": "high polyreactivity"},
      {"sequence": "QVQLVESGGGLVQAGGSLRLSCAASGSTFKFYTMGWYRQAPGKERELVATIDWSGGSTYYADSVKGRFTISRDNAKNTVYLQMNSLKPEDTAVYYCAAYSRSRTTRLGKYYYWGQGTQVTVSS", "polyreactivity (PSR sort gate)": "high polyreactivity"}
    ]}
  ]
}
